Test results from the Immune Epitope Database (IEDB).

Assays:
[1] = molecular target: HLA-B*57:01; assay: IEDB peptide-MHC binding, purified MHC/direct/fluorescence; filed as Kd, often an IC50 or EC50 that approximates it; ≥ and ≤ were set here for values at or beyond the usual limits of such assays
[2] = molecular target: HLA-B*38:01; assay: as above
[3] = molecular target: HLA-B*08:01; assay: as above
[4] = molecular target: HLA-B*39:01; assay: as above
[5] = molecular target: HLA-B*27:05; assay: as above
[6] = molecular target: HLA-A*11:01; assay: as above; conditions: source organism: Mycobacterium tuberculosis
[7] = molecular target: HLA-B*58:01; assay: as above
[8] = molecular target: HLA-B*40:01; assay: as above
[9] = molecular target: HLA-B*18:01; assay: as above
[10] = molecular target: HLA-B*46:01; assay: as above
[11] = molecular target: HLA-A*01:01; assay: as above
[12] = molecular target: HLA-A*02:01; assay: as above
[13] = molecular target: HLA-B*15:01; assay: as above
[14] = molecular target: HLA-A*31:01; assay: as above; conditions: source organism: Mycobacterium tuberculosis
[15] = molecular target: HLA-B*48:01; assay: as above
[16] = molecular target: HLA-B*51:01; assay: as above; conditions: source organism: Mycobacterium tuberculosis
[17] = molecular target: HLA-A*69:01; assay: as above
[18] = molecular target: HLA-B*15:17; assay: as above; conditions: source organism: Mycobacterium tuberculosis
[19] = molecular target: HLA-A*03:01; assay: as above; conditions: source organism: Mycobacterium tuberculosis
[20] = molecular target: HLA-B*08:01; assay: IEDB peptide-MHC binding, purified MHC/competitive/fluorescence; ≥ and ≤ were set here for values at or beyond the usual limits of such assays
[21] = molecular target: HLA-B*15:01; assay: as above; conditions: source organism: Zaire ebolavirus
[22] = molecular target: HLA-A*24:02; assay: as above
[23] = molecular target: HLA-B*07:02; assay: IEDB peptide-MHC binding, purified MHC/direct/fluorescence; filed as Kd, often an IC50 or EC50 that approximates it; ≥ and ≤ were set here for values at or beyond the usual limits of such assays; conditions: source organism: Marburg virus - Musoke, Kenya, 1980
[24] = molecular target: HLA-B*08:02; assay: as above; conditions: source organism: Ravn virus - Ravn, Kenya, 1987
[25] = molecular target: HLA-A*68:02; assay: as above; conditions: source organism: Marburg virus - Musoke, Kenya, 1980
[26] = molecular target: HLA-A*26:01; assay: as above
[27] = molecular target: HLA-B*15:09; assay: as above; conditions: source organism: Ravn virus - Ravn, Kenya, 1987
[28] = molecular target: HLA-B*15:01; assay: IEDB peptide-MHC binding, purified MHC/competitive/fluorescence; filed as Kd, often an IC50 or EC50 that approximates it; ≥ and ≤ were set here for values at or beyond the usual limits of such assays; conditions: source organism: Orthomarburgvirus marburgense
[29] = molecular target: HLA-A*26:02; assay: as above; conditions: source organism: Orthomarburgvirus marburgense
[30] = molecular target: HLA-B*35:01; assay: as above; conditions: source organism: Orthomarburgvirus marburgense
[31] = molecular target: HLA-B*15:17; assay: as above; conditions: source organism: Orthomarburgvirus marburgense
[32] = molecular target: HLA-C*03:03; assay: IEDB peptide-MHC binding, purified MHC/direct/fluorescence; filed as Kd, often an IC50 or EC50 that approximates it; ≥ and ≤ were set here for values at or beyond the usual limits of such assays; conditions: source organism: Orthomarburgvirus marburgense
[33] = molecular target: HLA-A*02:06; assay: IEDB peptide-MHC binding, purified MHC/competitive/fluorescence; filed as Kd, often an IC50 or EC50 that approximates it; ≥ and ≤ were set here for values at or beyond the usual limits of such assays; conditions: source organism: Orthomarburgvirus marburgense
[34] = molecular target: HLA-A*01:01; assay: as above; conditions: source organism: Orthomarburgvirus marburgense
[35] = molecular target: HLA-A*02:01; assay: as above; conditions: source organism: Orthomarburgvirus marburgense
[36] = molecular target: HLA-A*68:02; assay: as above; conditions: source organism: Orthomarburgvirus marburgense
[37] = molecular target: HLA-C*04:01; assay: IEDB peptide-MHC binding, purified MHC/direct/fluorescence; filed as Kd, often an IC50 or EC50 that approximates it; ≥ and ≤ were set here for values at or beyond the usual limits of such assays
[38] = molecular target: HLA-A*24:02; assay: IEDB peptide-MHC binding, purified MHC/competitive/fluorescence; filed as Kd, often an IC50 or EC50 that approximates it; ≥ and ≤ were set here for values at or beyond the usual limits of such assays
[39] = molecular target: HLA-A*02:01; assay: IEDB peptide-MHC binding, purified MHC/competitive/fluorescence; ≥ and ≤ were set here for values at or beyond the usual limits of such assays; conditions: source organism: Variola virus
[40] = molecular target: HLA-B*08:01; assay: IEDB peptide-MHC binding, purified MHC/competitive/fluorescence; filed as Kd, often an IC50 or EC50 that approximates it; ≥ and ≤ were set here for values at or beyond the usual limits of such assays; conditions: source organism: Mycobacterium tuberculosis variant bovis BCG str. Pasteur 1173P2
[41] = source organism: Mycobacterium tuberculosis
[42] = source organism: Mycobacterium tuberculosis str. Haarlem
[43] = source organism: Zaire ebolavirus
[44] = source organism: Vaccinia virus Copenhagen
[45] = source organism: Marburg virus - Musoke, Kenya, 1980
[46] = source organism: Ravn virus - Ravn, Kenya, 1987
[47] = source organism: Salmonella enterica subsp. enterica serovar Typhi str. CT18
[48] = source organism: Rickettsia typhi str. Wilmington

Work on APAKKAAPA yielded a Kd [1, 41] of at least 20 µM, a Kd [2, 42] of at least 20 µM and a Kd [3, 42] of 0.077 µM. For the same sequence, the Kd [4, 42] was at least 20 µM, the Kd [5, 41] was at least 20 µM and the Kd [6] was at least 20 µM. The Kd [7, 41] was at least 20 µM, the Kd [8, 41] was at least 20 µM and the Kd [9, 41] was at least 20 µM. It also gave a Kd [10, 41] of at least 20 µM, a Kd [11, 41] of at least 20 µM and a Kd [12, 41] of at least 20 µM. The Kd [13, 41] was at least 20 µM, the Kd [14] was at least 20 µM and the Kd [15, 41] was at least 20 µM. For the same sequence, the Kd [16] was at least 20 µM, the Kd [17, 41] was at least 20 µM and the Kd [18] was at least 20 µM. For the same sequence, the Kd [19] was at least 20 µM.
For DRFKRTSFF, the IC50 [20, 43] was 5.43 µM, the IC50 [21] was at least 181 µM and the IC50 [22, 43] was 1.22 µM.
GYFLKIKVT showed an IC50 [20, 44] of at least 231 µM and an IC50 [22, 44] of at least 215 µM.
With IHLDKGGQF the Kd [1, 45] was at least 20 µM, the Kd [2, 46] was at least 20 µM and the Kd [3, 46] was at least 20 µM. It also gave a Kd [4, 45] of at least 20 µM, a Kd [5, 45] of at least 20 µM and a Kd [7, 45] of at least 20 µM. The Kd [8, 45] was at least 20 µM, the Kd [9, 45] was at least 20 µM and the Kd [10, 45] was at least 20 µM. The Kd [11, 45] was at least 20 µM, the Kd [12, 45] was at least 20 µM and the Kd [23] was at least 20 µM. The Kd [15, 45] was at least 20 µM, the Kd [24] was at least 20 µM and the Kd [17, 45] was at least 20 µM. It also gave a Kd [25] of at least 20 µM, a Kd [26, 46] of at least 20 µM and a Kd [27] of 7.14 µM. It also gave a Kd [28] of at least 20 µM, a Kd [29] of at least 20 µM and a Kd [30] of at least 20 µM. For the same sequence, the Kd [31] was at least 20 µM.
ISDPLTSGL was tested, and the Kd [1, 45] was at least 20 µM, the Kd [2, 46] was 5.03 µM and the Kd [3, 46] was at least 20 µM. It also gave a Kd [32] of at least 20 µM, a Kd [4, 45] of at least 20 µM and a Kd [5, 45] of at least 20 µM. It also gave a Kd [7, 45] of 0.415 µM, a Kd [8, 45] of at least 20 µM and a Kd [9, 45] of at least 20 µM. The Kd [10, 45] was at least 20 µM, the Kd [13, 45] was at least 20 µM and the Kd [23] was at least 20 µM. For the same sequence, the Kd [15, 45] was at least 20 µM, the Kd [26, 46] was at least 20 µM and the Kd [33] was 0.0206 µM. It also gave a Kd [34] of 1.03 µM, a Kd [35] of 0.0681 µM and a Kd [36] of at least 20 µM. It also gave a Kd [30] of at least 20 µM and a Kd [31] of 0.0132 µM.
For IYASRPLDF, the Kd [37, 47] was at least 20 µM and the Kd [38, 47] was at most 0.0001 µM.
Sequence IYYWTAWLI has a Kd [37, 48] of at least 20 µM and a Kd [38, 48] of 0.0017 µM.
For LSLPRIALV, the IC50 ([20]; source organism: Variola virus) was at least 285 µM and the IC50 [39] was 0.617 µM.
In the case of SPRSRNRSF, the Kd [1, 41] is reported as at least 20 µM, the Kd [2, 42] is reported as at least 20 µM and the Kd [4, 42] is reported as at least 20 µM. It also gave a Kd [5, 41] of at least 20 µM, a Kd [6] of at least 20 µM and a Kd [7, 41] of at least 20 µM. For the same sequence, the Kd [8, 41] was at least 20 µM, the Kd [9, 41] was at least 20 µM and the Kd [10, 41] was at least 20 µM. It also gave a Kd [11, 41] of at least 20 µM, a Kd [12, 41] of at least 20 µM and a Kd [13, 41] of at least 20 µM. The Kd [14] was at least 20 µM, the Kd [15, 41] was at least 20 µM and the Kd [16] was at least 20 µM. For the same sequence, the Kd [17, 41] was at least 20 µM, the Kd [26, 42] was at least 20 µM and the Kd [18] was at least 20 µM. The Kd [19] was at least 20 µM and the Kd [40] was 0.123 µM.
VMPLLVWLF was tested, and the Kd ([38]; source organism: Campylobacter jejuni subsp. jejuni NCTC 11168 = ATCC 700819) was 0.0029 µM.
